Measured values published in patent publication US12077599 (SEOUL NATIONAL UNIVERSITY R AND DB FOUNDATION NATIONAL …, dated 2024).

T1: ROS1 synthetic peptide (amino acids 39-56 of ROS1 combined to GGGC) conjugated to BSA (human, not fully specified; conjugated to bovine serum albumin (BSA) or ovalbumin (OVA))
T1 peptide: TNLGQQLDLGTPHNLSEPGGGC

B1: alanine-substituted ROS1-hFc fusion protein, Gly42 replaced with alanine (Fc fusion, not shown: a dimerising Fc or GST; small tags and cut ends)
chain: CVTNLAQQLDLGTPHNLSEPCIQGCHFWNSVDQKNCALKCRESCEVGCSSAEGAYEEEVLENADLPTAPFASSIGSHNMTLRWKSANFSGVKYIIQWKYAQLLGSWTYTKTVSRPSYVVKPLHPFTEYIFRVVWIFTAQLQLYSPPSPSYRTHPHGVPETAPLIRNIESSSPDTVEVSWDPPQFPGGPILGYNLRLISKNQKLDAGTQRTSFQFYSTLPNTIYRFSIAAVNEVGEGPEAESSITTSSSAVQQEE
notes: One of the 13 single alanine mutants from Gly42 to Ser54; also called G42A
B2: alanine-substituted ROS1-hFc fusion protein, Gln43 replaced with alanine (Fc fusion, not shown: a dimerising Fc or GST; small tags and cut ends)
chain: CVTNLGAQLDLGTPHNLSEPCIQGCHFWNSVDQKNCALKCRESCEVGCSSAEGAYEEEVLENADLPTAPFASSIGSHNMTLRWKSANFSGVKYIIQWKYAQLLGSWTYTKTVSRPSYVVKPLHPFTEYIFRVVWIFTAQLQLYSPPSPSYRTHPHGVPETAPLIRNIESSSPDTVEVSWDPPQFPGGPILGYNLRLISKNQKLDAGTQRTSFQFYSTLPNTIYRFSIAAVNEVGEGPEAESSITTSSSAVQQEE
notes: also called Q43A
B3: alanine-substituted ROS1-hFc fusion protein, Gln44 replaced with alanine (Fc fusion, not shown: a dimerising Fc or GST; small tags and cut ends)
chain: CVTNLGQALDLGTPHNLSEPCIQGCHFWNSVDQKNCALKCRESCEVGCSSAEGAYEEEVLENADLPTAPFASSIGSHNMTLRWKSANFSGVKYIIQWKYAQLLGSWTYTKTVSRPSYVVKPLHPFTEYIFRVVWIFTAQLQLYSPPSPSYRTHPHGVPETAPLIRNIESSSPDTVEVSWDPPQFPGGPILGYNLRLISKNQKLDAGTQRTSFQFYSTLPNTIYRFSIAAVNEVGEGPEAESSITTSSSAVQQEE
notes: also called Q44A
B4: alanine-substituted ROS1-hFc fusion protein, Asp46 replaced with alanine (Fc fusion, not shown: a dimerising Fc or GST; small tags and cut ends)
chain: CVTNLGQQLALGTPHNLSEPCIQGCHFWNSVDQKNCALKCRESCEVGCSSAEGAYEEEVLENADLPTAPFASSIGSHNMTLRWKSANFSGVKYIIQWKYAQLLGSWTYTKTVSRPSYVVKPLHPFTEYIFRVVWIFTAQLQLYSPPSPSYRTHPHGVPETAPLIRNIESSSPDTVEVSWDPPQFPGGPILGYNLRLISKNQKLDAGTQRTSFQFYSTLPNTIYRFSIAAVNEVGEGPEAESSITTSSSAVQQEE
notes: also called D46A

Experiments:
[1] = biological target: T1, ROS1 synthetic peptide (amino acids …); test: phage ELISA after five rounds of biopanning on the peptide conjugate
Excerpt: Three White Leghorn chickens were immunized and boosted three times with the synthetic peptide ([…] […] (SEQ ID NO: 16); fusion polypeptide in which the 39th to 56th amino acid regions of ROS1 (GenBank Accession No. NP_002935.2) combined to "GGGC") conjugated to keyhole limpet hemocyanin (Peptron; Daejun, S. Korea). A phage display of a chicken single-chain variable fragment (scFv) antibody library was constructed [See C. F. Barbas, Phage Display: a Laboratory Manual, Cold Spring Harbor Laboratory Press, Cold Spring Harbor, N Y, 2001]. After five rounds of biopanning on the ROS1 synthetic peptide ([…]-[…]) conjugated to either bovine serum albumin (BSA) or ovalbumin (OVA), the single-chain variable fragment (scFv)-displaying phages were subjected to enzyme-linked immunosorbent assay (ELISA) [See C. F. Barbas, Phage Display: a Laboratory Manual, Cold Spring Harbor Laboratory Press, Cold Spring Harbor, N Y, 2001; S. Park, D. H. Lee, J. G. Park, Y. T. Lee, J. Chung, A sensitive enzyme immunoassay for measuring cotinine in passive smokers, Clin. Chim. Acta 411 (2010) 1238-1242].

[2] = biological target: T2, Heat shock 70 kDa protein 1A/1B, from HEK293T cell lysate (human, UniProt P0DMV8 2-641); test: immunoprecipitation with 3B20 scFv-rFc from HEK293T lysates, LC-MS of the 70 kDa band
T2 construct: Identified by LC-MS/MS against the IPI human database; also called Hsp70; HSP70
Method: (§1) HEK293T cell lines overexpressing either ROS1 or GFP were lysed in cold lysis buffer [1% Triton X-100, 150 mM NaCl, 50 mM Tris (pH 8.0)] containing 1 mM phenylmethane sulfonyl fluoride (Merck KGaA, Darmstadt, Germany) a protease inhibitor cocktail (Roche), and a phosphatase inhibitor cocktail (Roche). Lysates were incubated with 3B20 scFv or 3B20 scFv-G1K fused to the rFc fusion protein (5 μg/mL) and protein A-conjugated agarose beads (RepliGen, Waltham, MA, USA). After washing, proteins bound to beads were eluted by boiling in NuPAGE LDS Sample Buffer (Thermo Fisher Scientific) and subjected to SDS-PAGE and immunoblotting (See Reference example 4). The eluted proteins separated by SDS-PAGE were visualized using Coomassie Brilliant Blue R250 (Merck). […]
(§2) To investigate the proteins reactive to 3B20 scFv, immunoprecipitation was performed using a 3B20 scFv-rFc fusion protein from HEK293T cells transfected with lentiviral vector encoding human ROS1 (full-length) or GFP (control). […] Bands corresponding to 70 kDa and 260 kDa were excised from the gel and analyzed by liquid chromatography/MS. The obtained result was shown in FIG. 1c, and the list of proteins analyzed in (A) and (B) bands represented by arrows in FIG. 1c was shown in the following Table 2. As expected, ROS1 (accession number: IPI0028965; SEQ ID NO: 9) was detected in a band of 260 kDa.

[3] = biological target: T3, Stress-70 protein, mitochondrial (GRP75), from HEK293T cell lysate (human, UniProt P38646 47-679); test: as above
T3 construct: Identified by LC-MS/MS against the IPI human database; also called IPI00007765 (+1)
Method: as §1, §2

[4] = biological target: B2; test: alanine scanning ELISA, 3B20 scFv-Cκ coated, ROS1-hFc mutant in solution, HRP anti-hFc
Method: (§3) For alanine scanning mutagenesis of the 3B20 scFv, microtiter plates (Corning Costar) were coated with 100 ng of the 3B20 scFv-Cκ fusion protein, BSA, or the irrelevant scFv-Cκ fusion protein overnight at 4° ° C. After blocking, the plates were incubated with alanine-substituted ROS1-human antibody Fc (hFc) fusion proteins (each amino acid residue from the 42th amino acid residue (Gly) to the 54th amino acid residue (Ser) was replaced with alanine) or a wild type ROS1-hFc fusion protein. The amount of bound fusion protein was determined using an HRP-conjugated rabbit anti-human IgG Fc antibody (Thermo Fisher Scientific, Rockford, IL, USA).
(§4) Example 2. Epitope Mapping of the 3B20 scFv by Alanine Scanning Mutagenesis Assay To further confirm the epitope of the 3B20 scFv, alanine scanning mutagenesis assay was performed using recombinant ROS1 proteins corresponding to amino acids 37-290. First, alanine-substituted ROS1 mutants in which any one of amino acid residues from Gly42 to Ser54 of ROS1 was substituted were prepared. After coating the microtiter plate well with the 3B20 scFv-Cκ fusion protein, BSA or irrelevant scFv-Cκ fusion protein, the plate was incubated with the alanine-substituted ROS1-hFc fusion protein or wild-type ROS1-hFc fusion protein. The amount of the ROS1-hFc fusion protein combined to the plate was measured using the HRP-conjugated anti-hFc antibody and ATBS solution. The obtained result was shown in FIG. 2a (3B20 scFv-Cκ fusion protein coating), 2b (BSA coating) and 2c (irrelevant scFv-Cκ fusion protein coating).

[5] = biological target: B3; test: as above
Method: as §3, §4

[6] = biological target: B1; test: as above
Method: as §3, §4

[7] = biological target: B4; test: as above
Method: as §3, §4

bovine serum albumin = biological target: T4, bovine serum albumin (bovine, UniProt P02769 25-607); test: ELISA, BSA coated, ROS1-hFc mutant in solution, HRP anti-hFc
T4 construct: Negative control coating in the alanine scanning ELISA; also called BSA
Method: as §3, §4

T4 sequence (P02769 25-607 limits assumed): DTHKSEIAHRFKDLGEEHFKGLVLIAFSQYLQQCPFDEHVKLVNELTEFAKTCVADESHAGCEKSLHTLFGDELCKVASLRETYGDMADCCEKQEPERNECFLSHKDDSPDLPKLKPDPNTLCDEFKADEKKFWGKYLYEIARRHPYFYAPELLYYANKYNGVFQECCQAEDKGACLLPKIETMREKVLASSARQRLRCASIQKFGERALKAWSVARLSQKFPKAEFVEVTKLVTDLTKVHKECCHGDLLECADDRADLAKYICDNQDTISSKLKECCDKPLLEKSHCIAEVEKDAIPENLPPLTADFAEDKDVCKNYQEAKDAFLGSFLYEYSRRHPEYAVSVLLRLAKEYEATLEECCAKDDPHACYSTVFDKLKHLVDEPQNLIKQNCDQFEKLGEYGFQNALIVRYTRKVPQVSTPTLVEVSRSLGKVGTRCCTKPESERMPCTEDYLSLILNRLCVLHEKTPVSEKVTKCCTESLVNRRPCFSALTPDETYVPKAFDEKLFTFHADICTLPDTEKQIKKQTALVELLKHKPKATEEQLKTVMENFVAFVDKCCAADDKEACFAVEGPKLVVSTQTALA
T2 sequence (P0DMV8 2-641 limits assumed): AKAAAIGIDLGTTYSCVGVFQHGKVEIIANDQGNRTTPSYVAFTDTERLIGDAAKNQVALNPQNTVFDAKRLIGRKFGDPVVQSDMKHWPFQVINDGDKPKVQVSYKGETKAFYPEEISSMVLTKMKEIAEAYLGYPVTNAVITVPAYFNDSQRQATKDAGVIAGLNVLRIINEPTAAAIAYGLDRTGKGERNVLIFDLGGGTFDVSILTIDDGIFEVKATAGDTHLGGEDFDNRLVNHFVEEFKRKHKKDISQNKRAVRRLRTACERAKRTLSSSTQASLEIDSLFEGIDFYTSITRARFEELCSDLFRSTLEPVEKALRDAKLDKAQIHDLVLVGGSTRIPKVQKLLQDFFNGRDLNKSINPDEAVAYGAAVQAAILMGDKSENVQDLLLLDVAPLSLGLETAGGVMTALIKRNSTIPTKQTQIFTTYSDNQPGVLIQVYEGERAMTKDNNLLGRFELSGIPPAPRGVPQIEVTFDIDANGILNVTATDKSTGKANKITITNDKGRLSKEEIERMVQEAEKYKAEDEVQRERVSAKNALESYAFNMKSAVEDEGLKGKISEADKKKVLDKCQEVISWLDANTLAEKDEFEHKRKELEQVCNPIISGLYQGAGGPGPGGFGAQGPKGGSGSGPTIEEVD
T3 sequence (P38646 47-679 limits assumed): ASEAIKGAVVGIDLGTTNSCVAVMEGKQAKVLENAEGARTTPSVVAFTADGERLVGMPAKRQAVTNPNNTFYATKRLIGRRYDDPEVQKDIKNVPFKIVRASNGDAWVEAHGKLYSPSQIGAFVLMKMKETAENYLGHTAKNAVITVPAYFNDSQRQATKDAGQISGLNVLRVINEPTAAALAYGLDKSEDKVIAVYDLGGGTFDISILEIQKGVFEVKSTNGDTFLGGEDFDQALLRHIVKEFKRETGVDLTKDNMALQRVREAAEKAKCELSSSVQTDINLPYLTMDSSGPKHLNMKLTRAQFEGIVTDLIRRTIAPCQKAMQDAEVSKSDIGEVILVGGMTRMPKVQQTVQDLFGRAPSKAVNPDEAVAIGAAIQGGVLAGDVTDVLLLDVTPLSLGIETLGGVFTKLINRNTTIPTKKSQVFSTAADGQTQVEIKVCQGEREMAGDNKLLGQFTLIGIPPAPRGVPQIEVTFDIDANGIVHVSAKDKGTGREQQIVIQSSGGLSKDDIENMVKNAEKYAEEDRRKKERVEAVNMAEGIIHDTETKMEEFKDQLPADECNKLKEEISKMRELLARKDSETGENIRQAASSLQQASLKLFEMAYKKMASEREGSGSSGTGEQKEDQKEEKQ

Row | Binder | binding result (bovine serum albumin) | also measured
1 | 3B20 scFv (phage-displayed clone) (scFv, the phage coat fusion is not described) scFv: LTQPSSVSANLGGTVKITCSGGSYGYGWYQQKAPGSAPVTVIYDNTNRPSDIPSRFSGSKSGSTGTLTITGVQVEDEAVYYCGSADSSSIATFGAGTTLTVLGQSSRSSGGGGSSGGGGSAVTLDESGGGLQTPGGTLSLVCKASGFSFSDRGMHWMRQAPGKGLEYVGAISGDGYITHYGAAVKGRATISRDNGQSTVRLQLNNLRAEDTATYYCTRGGGGNIDAWGHGTEVIVSSTS | – | binding result [1]: binds
2 | 3B20 scFv-rFc fusion protein (Fc fusion, rabbit, domain: fragment crystallizable region Fc (rFc); scFv fused with rabbit Fc, expressed from modified pCEP4; also called 3B20-rFc; scFv(3B20)-rFc fusion protein; not shown: rabbit antibody fragment crystallizable region Fc (rFc)) LTQPSSVSANLGGTVKITCSGGSYGYGWYQQKAPGSAPVTVIYDNTNRPSDIPSRFSGSKSGSTGTLTITGVQVEDEAVYYCGSADSSSIATFGAGTTLTVLGQSSRSSGGGGSSGGGGSAVTLDESGGGLQTPGGTLSLVCKASGFSFSDRGMHWMRQAPGKGLEYVGAISGDGYITHYGAAVKGRATISRDNGQSTVRLQLNNLRAEDTATYYCTRGGGGNIDAWGHGTEVIVSSTS | – | binding result [2]: binds; binding result [3]: binds
3 | 3B20 scFv-Cκ fusion protein (scFv, Coated on the plate in the alanine scanning ELISA; not shown: human kappa light chain constant region (Cκ)) LTQPSSVSANLGGTVKITCSGGSYGYGWYQQKAPGSAPVTVIYDNTNRPSDIPSRFSGSKSGSTGTLTITGVQVEDEAVYYCGSADSSSIATFGAGTTLTVLGQSSRSSGGGGSSGGGGSAVTLDESGGGLQTPGGTLSLVCKASGFSFSDRGMHWMRQAPGKGLEYVGAISGDGYITHYGAAVKGRATISRDNGQSTVRLQLNNLRAEDTATYYCTRGGGGNIDAWGHGTEVIVSSTS | – | binding result [4]: binds; binding result [5]: binds; binding result [6]: binds; binding result [7]: binds
4 | B1 | no binding | –
5 | B2 | no binding | –
6 | B3 | no binding | –
7 | alanine-substituted ROS1-hFc fusion protein, L45A mutant (Fc fusion, not shown: a dimerising Fc or GST; small tags and cut ends, also called L45A mutant of ROS1 protein) CVTNLGQQADLGTPHNLSEPCIQGCHFWNSVDQKNCALKCRESCEVGCSSAEGAYEEEVLENADLPTAPFASSIGSHNMTLRWKSANFSGVKYIIQWKYAQLLGSWTYTKTVSRPSYVVKPLHPFTEYIFRVVWIFTAQLQLYSPPSPSYRTHPHGVPETAPLIRNIESSSPDTVEVSWDPPQFPGGPILGYNLRLISKNQKLDAGTQRTSFQFYSTLPNTIYRFSIAAVNEVGEGPEAESSITTSSSAVQQEE | no binding | –
8 | B4 | no binding | –
9 | alanine-substituted ROS1-hFc fusion protein, L47A mutant (Fc fusion, not shown: a dimerising Fc or GST; small tags and cut ends, also called L47A mutant of ROS1 protein) CVTNLGQQLDAGTPHNLSEPCIQGCHFWNSVDQKNCALKCRESCEVGCSSAEGAYEEEVLENADLPTAPFASSIGSHNMTLRWKSANFSGVKYIIQWKYAQLLGSWTYTKTVSRPSYVVKPLHPFTEYIFRVVWIFTAQLQLYSPPSPSYRTHPHGVPETAPLIRNIESSSPDTVEVSWDPPQFPGGPILGYNLRLISKNQKLDAGTQRTSFQFYSTLPNTIYRFSIAAVNEVGEGPEAESSITTSSSAVQQEE | no binding | –
10 | alanine-substituted ROS1-hFc fusion protein, G48A mutant (Fc fusion, not shown: a dimerising Fc or GST; small tags and cut ends, also called G48A mutant of ROS1 protein) CVTNLGQQLDLATPHNLSEPCIQGCHFWNSVDQKNCALKCRESCEVGCSSAEGAYEEEVLENADLPTAPFASSIGSHNMTLRWKSANFSGVKYIIQWKYAQLLGSWTYTKTVSRPSYVVKPLHPFTEYIFRVVWIFTAQLQLYSPPSPSYRTHPHGVPETAPLIRNIESSSPDTVEVSWDPPQFPGGPILGYNLRLISKNQKLDAGTQRTSFQFYSTLPNTIYRFSIAAVNEVGEGPEAESSITTSSSAVQQEE | no binding | –
